{"source": "the nanobody polyreactivity screen of Harvey et al. (2022)", "data": [{"experiment": "yeast display, Sf9 membrane polyspecificity reagent, FACS + sequencing; frameworks hold sequencing errors", "procedure,_shortened": "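Nanobodies came from a synthetic yeast display library in Saccharomyces cerevisiae BJ5465, induced with galactose for 36–48 hours and stained for 1 hour at 4 °C with 10% biotinylated, detergent-solubilized Sf9 membrane reagent. Cells were enriched on streptavidin microbeads and then FACS-sorted, with low and high (top ~1%) gates set on anti-HA fluorescence for expression and streptavidin fluorescence for reagent binding. Each polyreactivity label reflects the gate a clone came from. Genes were amplified by colony PCR, sequenced by MiSeq 2 × 250 and filtered by CDR length.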", "values": [{"sequence": "QVQLVESGGGLVQAGGSLRLSCAASGRIFWQNAKGWYRQAPGKERELVAAISSRGGTTYYADSVKGRFTISRDNAKNTVYLQMNRLKPEDTAVYYCNAALLLRYRGFFTVAAYDYWGQGTQVTVSS", "polyreactivity (PSR sort gate)": "low polyreactivity"}, {"sequence": "QVQLVESGGGLVLAGGSLRLSCAASGRTFGYYTMGWYRQAPGKERELVAGISSAGSTNYADSVKGRFTLSRDYAKNTVYLQMNSLKPEDTAVYYCAARYQFYRYDSTYYYCGQGTQVTVSS", "polyreactivity (PSR sort gate)": "high polyreactivity"}, {"sequence": "QVQLVESGGGLVQAGGSLRLSCAASGGIFPDYAMGWYRQAPGKERELVAVISDSGGSTYYADSVKGRFTISRDNAKNTVYLQMNSLKPEDTAVYYCSAETEWYYGYYEYWGQGTQVTVSS", "polyreactivity (PSR sort gate)": "high polyreactivity"}, {"sequence": "QVQLVESGGGLVQAGGSLRLSCAASGIIFYEFTMGWYRQAPGKERELVATISWSGGSTYYADSVKGRFTISRDNAKNTVYLQMNSLQPEDTAVYYCAADFADVQSISPDSAHEYDYWGQGTQVTVSS", "polyreactivity (PSR sort gate)": "low polyreactivity"}, {"sequence": "QVQLVESGGGLVQAGGSLRLSCAASGFTFVRYAMGWYRQAPGKERELVAAITRSGGSTYYADSVKGRFTISRDNAKNTVYLQMNSLKPEDTAVYYCNARRSRSRYDYWGQGTQVTVSS", "polyreactivity (PSR sort gate)": "high polyreactivity"}, {"sequence": "QVQLVESGGGLVQAGGSLRLSCAASGRIFGVYAMGWYRQAPGKERELVAAIRGDGSTNYADSVKGRFTISRDNAKNTVYLQMNSLKPEDTAVYYCATDLGIYSGSPWGYYYWGQGTQVTVSS", "polyreactivity (PSR sort gate)": "low polyreactivity"}, {"sequence": "QVQLVESGGGLVQAGGSLRLSCAASGFTFYIYAMGWYRQAPGKERELVARISSGGRTYYADSVKGRFTISRDNAKNTVYLQMNRLKPEDTAVYDCHFWYGSWGQGTQVTVSS", "polyreactivity (PSR sort gate)": "low polyreactivity"}, {"sequence": "QVQLVESGGGLVQAGGSLRLSCAASGSIFVGNAMGWYRQAPGKERELFAAISSSGGSTYYADSVKGRFTISRDKAKNTFYLQMNILKPEDTAVYYCASDTYSTSGFYYWGQGTQVTVSS", "polyreactivity (PSR sort gate)": "low polyreactivity"}, {"sequence": "QFQLLESGRGLVQAGGSLRLSCAASGRTYNVNAMGWYRKAPGKERELVASISSGTSTNYADSVKGRFTITRDNAKNTVYLQLNRLNREDTAVYYCNADFVWNGYSGRIRDYYWGQATQVTVSS", "polyreactivity (PSR sort gate)": "low polyreactivity"}, {"sequence": "QVQLVESGGGYVQAGGSLRLSCAASGRTFLGYDMGWYRQAPGKERELVAAISSSGGSTYYADSVKGRFTISRDNAKNTVYLEMNSLKPEDTAVYYCAKRNRATGASGHRFGYWGQGTHVTVSS", "polyreactivity (PSR sort gate)": "high polyreactivity"}, {"sequence": "QVQLVESGGGLVQAGGSLRLSCPASGRTIEGYAMGWYRQATGKERELVAAISRRGGSTYYADSVKGRFTISRDNAKNTVFLQMNSLKPEDTAVYYCAARDASTGAVRYYYWGQGTQVTVSS", "polyreactivity (PSR sort gate)": "high polyreactivity"}, {"sequence": "QVQLVESGGGLVQAGGSLRLSCAASGRTFINNAMGWYRQAPGKERELVAAISWDGGRTYYADSVKGRFTISRDNAKNTVYLQMNSLKPEDTAVYYCNAQPNYAYHGEDDYWGQGTQVTVSS", "polyreactivity (PSR sort gate)": "high polyreactivity"}, {"sequence": "QVQLVESGGGLVQAGGSLRLSCAASGIIFDPYAMGWYRQAPGKERELVADIDNASSTYYADSVKGRFTISRDNAKNTVYLQMNSLKPEDTAVYYCTADLWYGGEYWGQGTQVTVSS", "polyreactivity (PSR sort gate)": "low polyreactivity"}, {"sequence": "QVQHVESGGGLVQAGGSLRLSCAASGFTFPGYAMGWYRQAPGKERELVAAISSSGGRTNYADSVKGRFTISRDNAKNTVYLQMNSLKPEDTAVYYCKAVRTVRSYLQLTRHLVYWGQGTQVTVSS", "polyreactivity (PSR sort gate)": "high polyreactivity"}, {"sequence": "QVQLVESGGGLVQAGGSLRLSCAASGSTFSGYMGWYRQAPGKERELVAAITSSGGSTYYADSVKGRFTISRDNAKNTVYLQMYSLKPEDTAVYYCAADGGYRGEDYWGQGTQVTVSS", "polyreactivity (PSR sort gate)": "high polyreactivity"}, {"sequence": "QVQLVESGGGLVQAGCSLRISCAASGRIIKSYASGWYRQAPGKERELVAAITWSSGSTYYADSVKGRFTISRDNAKNTVYFQMKRLKPEDTEVYYCAADPIRYRSRHKYGFWGHGTQVTVSS", "polyreactivity (PSR sort gate)": "low polyreactivity"}, {"sequence": "QVQLVESGGGLVQAGGSLRLSCDASGSTSPGYAMGWYRQAPGKERELVAAITFRGTRTYYADSVKGRFTISRDNAKNTVYLQINSLKPEDTAVYYCNVVGYGPNRGRVDYWGQGTQVTVSS", "polyreactivity (PSR sort gate)": "high polyreactivity"}, {"sequence": "QVQLVESGGGLVQAGGSLRLSCAASGSIFWYNAMGWYRQAPGKERELVAAIRWRGGSTYYADSVKGRFTISRDNAKNTVYLQMNSLKPEDTAVYDCAAQVYVSQLYTSYYYWGQGTQVTVSS", "polyreactivity (PSR sort gate)": "high polyreactivity"}, {"sequence": "QVQLVESGGGLVQAGGSLRLSCAASGSIFTRYAMGWYRQAPGKERELVADIRTRGGGTYYADSVKGRFTISRDTAKNTVYLQMNSLKPEDTAVYYCAKLWYHVYGSSPYGYWGQGTQVTVSS", "polyreactivity (PSR sort gate)": "high polyreactivity"}, {"sequence": "QVQLVESGGGLVQAGGSLRLSCAASGLTFGDYAMGWYRQAPGKERELVAAITKSGGRTYYADSVKGRFTISRDNAKNTVYLQMNSLKPEDTEVYYCATRKGRRYGYNYWGQGTQVTVSS", "polyreactivity (PSR sort gate)": "high polyreactivity"}, {"sequence": "QVQLVESGGGLVQAGGSLRLSCAASGFTFKYYDMGWYRQAPGKERELVAAIDTSGGNTYYADSVKGRFTISRDYAKNTVYLQMNSLKPEDTAVYYCAATVPYYHDDYWGQGTQVTVSS", "polyreactivity (PSR sort gate)": "low polyreactivity"}]}]}
